Measurements: patent US20230151068A1
pKd: −log10 of the molar value.

Molecular target: biotinylated His-Avi-TEAD (194-411) (UniProt P28347)
Assay: SPR, biotinylated TEAD immobilized on the chip, Siderocalin-YAP as analyte

Chain of Siderocalin-fused YAP (50-171) (P80188 other isoform, or with tags, fused parts or gaps): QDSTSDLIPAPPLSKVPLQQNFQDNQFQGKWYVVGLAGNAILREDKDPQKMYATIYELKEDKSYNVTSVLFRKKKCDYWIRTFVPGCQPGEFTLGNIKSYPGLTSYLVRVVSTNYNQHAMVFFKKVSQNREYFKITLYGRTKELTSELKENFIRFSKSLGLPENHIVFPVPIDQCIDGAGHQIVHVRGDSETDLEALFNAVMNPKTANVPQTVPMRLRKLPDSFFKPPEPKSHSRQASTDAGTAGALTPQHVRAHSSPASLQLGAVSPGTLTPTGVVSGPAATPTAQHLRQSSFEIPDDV

## Siderocalin-fused YAP (50-171) (from UniProt P80188 21-198; P46937 50-171)
  pKd: 6.24
